Data: patent US20160046684A1, “Methods and compositions for treatment of PTP1B-related diseases” (BROWN UNIVERSITY, priority 2014, published 2016)

T1: PTP1B1-301 (Homo sapiens, UniProt P18031)
T1 construct: His6 (cleaved yes); made in house; host or cells: E. coli
T1 sequence (P18031 1-301): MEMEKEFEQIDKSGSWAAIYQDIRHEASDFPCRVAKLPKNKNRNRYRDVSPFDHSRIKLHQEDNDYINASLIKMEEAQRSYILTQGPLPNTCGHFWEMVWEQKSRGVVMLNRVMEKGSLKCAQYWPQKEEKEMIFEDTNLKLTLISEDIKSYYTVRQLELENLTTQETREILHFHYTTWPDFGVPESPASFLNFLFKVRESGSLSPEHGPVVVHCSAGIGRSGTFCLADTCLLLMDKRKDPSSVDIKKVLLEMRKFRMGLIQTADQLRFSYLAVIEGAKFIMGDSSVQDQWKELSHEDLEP


Key:
PTP1B1-301 = target: T1, PTP1B1-301; test: NMR relaxation (R1, R2, hetNOE) of inhibitor-bound PTP1B1-301; settings: 1:3 ratio of PTP1B1-301 to inhibitor, compared to apo PTP1B1-301
Method: Inhibitors were titrated into 200 μM ^15N-PTP1B at molar ratios of 1:1; 1:2, 1:3, 1:5 and 2D [^1H, ^15N] TROSY spectra at 850 MHz were recorded for each titration point. Inhibitors were solubilized in D6-DMSO at 25 mM. CS for PTP1B in the 2D [^1H, ^15N] TROSY spectrum caused by the addition of D6-DMSO were negligible. Chemical shift differences (Δδ) between PTP1B and inhibitor-bound PTP1B (3:1 molar ratio) spectra were calculated using: […]
Changes in motions of the domains of PTP1B1-301 bound to TCS-401 were measured by detecting nuclear relaxation time data at 500 MHz. See, FIG. 8A and FIG. 8B. Fast-timescale backbone dynamics were measured for ligand-free and inhibitor-bound (at 3:1 molar ratios) PTP1B constructs at either 850 or 500 MHz 1H Larmor frequency. ^15N longitudinal (R1) and transverse (R2) relaxation rates and ^15N [^1H]-NOE (hetNOE) measurements were acquired. The hetNOE measurements were determined from a pair of interleaved spectra acquired with or without pre-saturation, and a recycle delay of 5 seconds (only at 500 MHz ^1H Larmor frequency). Error was determined using signal to noise ratio for a given peak.

PTP1B = test: Phosphatase activity of PTP1B constructs against pNPP (enzyme assay); format: biochemical, human; settings: pNPP substrate, pH 7.5, 0.015 μM PTP1B (FIG. 27, 32A, 32B)
Method: Phosphatase activity of PTP1B against the general PTP/DUSP substrate, p-nitrophenyl phosphate (pNPP), was tested in 50 mM HEPES pH 7.5, 150 mM NaCl, 0.5 mM TCEP. 40 μl of enzyme at a 1.5 μM concentration was added to 60 μl of pNPP substrate resuspended in the reaction buffer. See, FIG. 25. The final concentrations of pNPP used in this experiment were […]. The enzyme was incubated with the substrate at 30° C. for 30 min, after which 100 μl of 1 M NaOH was added to a final concentration of 0.5 M NaOH to quench the reaction. Absorbance was measured at 405 nm and the final concentration of p-nitrophenol (pNP) was calculated using the molar extinction coefficient of 18000 M-1 cm-1. A control reaction in which substrate was incubated in the absence of enzyme was subtracted from all other experimental values. All experiments were performed in triplicate.
Enzyme assays were performed at pH 7.5 with 0.15 μM PTP1B to compare the activities of wild-type PTP1B1-301 to mutants with mutations in the L11 loop: PTP1BY152A/F, PTP1BY153A/F, and PTP1BYAYA. See, FIG. 17. […] Ibid. […] Ibid. […] Ibid. […] Ibid. […] Ibid. […] Ibid.
Enzyme assays were performed at pH 7.5 with 0.015 μM PTP1B to compare the activities of wild-type PTP1B1-301 to mutants with mutations in the α3 helix such as PTP1BN193A. See, FIG. 27. […] Ibid. […] Ibid. […] Ibid. […] Ibid. […] Ibid. […] Ibid.
An enzyme assay was used to compare the activity of wild-type PTP1B1-301 to the activity of PTP1B1-284 P185G. See, FIG. 15. Enzyme assays were performed at pH 7.5 with 0.015 μM PTP1B to compare the activities of wild-type PTP1B1-301 to mutants with mutations in the α7 helix. See, FIG. 32A. In one embodiment, these point mutations were made in an amino acid sequence substantially similar to SEQ ID NO: 2.

[1] = Circular dichroism thermal denaturation (melting temperature); format: physicochemical; settings: CD spectropolarimetry, thermal denaturation at 208 nm, 2.5 μM protein
Method: Circular dichroism (CD) spectropolarimetry was used to measure the melting temperatures of PTP1BYAYA, PTP1B1-301, and PTP1B1-284. CD measurements were performed on a Jasco J-815 CD spectropolarimeter. PTP1B samples were dialyzed at 4° C. into 10 mM sodium phosphate, pH 6.8, 150 mM NaCl. Samples were then diluted to a protein concentration of 2.5 μM and placed in a 0.2-cm glass cuvette. Wavelength scans were performed in the far-UV region from 260 to 195 nm at 25° C. at a speed of 20 nm/min. Thermal denaturation scans were performed at 208 nm from 25 to 90° C. at a scan speed of 1° C./min. Raw data were processed using the denatured protein analysis routine implemented in the SepctraAnalysis software and converted to mean residue molar ellipticity using the following equation: [θ]=θ/(10×C×1×n), where θ is ellipticity, C is the molar concentration, 1 is the cell path length in centimeters, and n is the number of residues. Plots are the average of three replicate scans.

Molecule	effect of inhibitor binding on PTP1B1-301 ps-ns backbone dynamics (PTP1B1-301)	Km (PTP1B) [µM]	kcat (PTP1B) [s⁻¹]	melting point (Tm) [1] [°C]
O=C(O)C(=O)Nc1sc2c(c1C(=O)O)CCNC2 [TCS-401]	loss of motions in the α7 helix and part of the WPD loop			
CCc1oc2cc(S(=O)(=O)Nc3ccc(S(=O)(=O)Nc4nccs4)cc3)ccc2c1C(=O)c1cc(Br)c(O)c(Br)c1 [allosteric site inhibitor, 3-(3,5-Dibromo-4-hydroxy-benzoyl)-2-ethyl-benzofuran-6-sulfonic acid-(4-(thiazol-2-ylsulfamyl)-phenyl)-amide]	minimal effect			
PTP1BL192A: PTP1B1-301 mutant with mutation in the α3 helix (protein, The sequence was designed and synthesized, PTP1B1-301 mutant with mutation in the α3 helix) MEMEKEFEQIDKSGSWAAIYQDIRHEASDFPCRVAKLPKNKNRNRYRDVSPFDHSRIKLHQEDNDYINASLIKMEEAQRSYILTQGPLPNTCGHFWEMVWEQKSRGVVMLNRVMEKGSLKCAQYWPQKEEKEMIFEDTNLKLTLISEDIKSYYTVRQLELENLTTQETREILHFHYTTWPDFGVPESPASFANFLFKVRESGSLSPEHGPVVVHCSAGIGRSGTFCLADTCLLLMDKRKDPSSVDIKKVLLEMRKFRMGLIQTADQLRFSYLAVIEGAKFIMGDSSVQDQWKELSHEDLEP		610 ± 40	1.86 ± 0.04	53.89
PTP1BN193A: PTP1B1-301 mutant with mutation in the α3 helix (protein, The sequence was designed and synthesized, PTP1B1-301 mutant with mutation in the α3 helix) MEMEKEFEQIDKSGSWAAIYQDIRHEASDFPCRVAKLPKNKNRNRYRDVSPFDHSRIKLHQEDNDYINASLIKMEEAQRSYILTQGPLPNTCGHFWEMVWEQKSRGVVMLNRVMEKGSLKCAQYWPQKEEKEMIFEDTNLKLTLISEDIKSYYTVRQLELENLTTQETREILHFHYTTWPDFGVPESPASFLAFLFKVRESGSLSPEHGPVVVHCSAGIGRSGTFCLADTCLLLMDKRKDPSSVDIKKVLLEMRKFRMGLIQTADQLRFSYLAVIEGAKFIMGDSSVQDQWKELSHEDLEP		830 ± 70	1.7 ± 0.06	49.1
